Results from patent US10563220B2, “Compositions and methods for efficient targeting of transgenes” (priority 2015, dated 2020).

Tests used:
[1] = system: knockout E. coli strain; assay type: cell-based; details: LB medium, acifluorfen 1 mM, flumioxazin 0.5 mM, lactofen 0.5 mM, fomesafen 1 mM, S-3100 100 μM
[2] = system: R0 transgenic maize plants; experiment: CTP-PPO herbicide tolerance evaluation in R0 transgenic maize (S-3100); assay type: in vivo
Protocol: R0 plants each containing a unique transformation event were sprayed with 40 g ai/ha or 80 g ai/ha of S-3100 at approximately the V5 growth stage and injury ratings were taken 4-7 days after treatment. The number of plants with ≤10% injury (highly tolerant) or ≤20% injury (tolerant) of the total number of sprayed plants was recorded. Plants that were determined to be single-copy events and that passed spray at ≤20% injury were advanced to selfing and outcrossing.

[3] = system: transgenic Brassica napus plants; experiment: Dicamba tolerance in R0 Brassica napus, greenhouse; details: R0 plants with one copy with vector backbone or two copies, tolerant = injury 20% or less, 21 days
Protocol: Brassica napus variety 65037 Restorer line was used for Agrobacterium-mediated transformation and R0 plants were grown in the greenhouse.
Dicamba tolerance was assessed using R0 plants with one copy of transgene with vector backbone or two copies of transgene. Dicamba tolerance was designated as dicamba injury of 20% or less under greenhouse conditions.
Dicamba tolerance was assessed on R0 plants with a one copy of the transgene. Plants were sprayed in the greenhouse with dicamba (Clarity) at 1 lb ae/acre (2× rate), and dicamba tolerance was determined 14 to 21 days later.

[4] = system: R1 transgenic cotton plants; experiment: R1 cotton greenhouse dicamba injury; details: dicamba 1120 g ai/ha at V4; rated 9 days after treatment; DMO SEQ ID NO:18
Description: Ten R1 seeds per event from 10 events for each construct and seed from DP393 cotton was planted to evaluate crop tolerance to post-emergence application of dicamba. Dicamba (Clarity) was applied at the V4 stage at 1120 g ai/ha. Crop injury percent ratings were taken 9 days after the treatment.

[5] = system: R1 transgenic soybean plants; experiment: R1 soybean greenhouse dicamba injury; details: dicamba 1120 g ai/ha at V4; rated 10 days after treatment; DMO SEQ ID NO:18
Description: Transgenic soybean plants were generated with two DNA constructs that were identical except for the APG6 CTP. The first DNA construct had APG6 (SEQ ID NO:1) operably linked to DMO (SEQ ID NO:18). The second DNA construct had the optimized APG6 (SEQ ID NO:2) operably linked to DMO (SEQ ID NO:18). Each DNA construct was used to transform A3555 soybean by Agrobacterium mediated transformation methods. Following transformation, R0 transgenic plants containing a single copy of the transgene were identified by PCR assay. Single-copy R0 plants were grown in greenhouse, and R1 seed was harvested. Ten R1 seeds per event for 4 events generated using each of the two DNA constructs and AG3555 seed was planted for evaluation of crop tolerance to post-emergence dicamba treatment under standard greenhouse growth conditions. Dicamba (Clarity) was applied at the V4 stage at 1120 g ai/ha. Crop injury ratings were taken 10 days after the treatment.

[6] = system: transgenic single-copy R0 soybean plants; experiment: S-3100 efficacy evaluation in R0 soybean; details: PPO H_N90; 20 g ai/ha S-3100 at about V3; 14 days after treatment
Description: Transgenic single-copy R0 plants, each representing a unique event, were sprayed in the greenhouse with the herbicide treatment 20 g ai/ha S-3100 applied at approximately the V3 stage. Injury ratings were taken 14 days after treatment as the number that were deemed highly tolerant (≤10% injury) or tolerant (≤20% injury).

[7] = construct configuration 17, PPO H_N40, S-3100 80 g ai/ha
[8] = construct configuration 17, PPO H_N90, S-3100 40 g ai/ha
[9] = construct configuration 18, PPO H_N40, S-3100 80 g ai/ha
[10] = construct configuration 19, PPO H_N40, S-3100 80 g ai/ha

B1: WH_PPO: protoporphyrinogen oxidase from Amaranthus tuberculatus (waterhemp), SEQ ID NO:60 (protein, listed as Amaranthus tuberculatus)
chain: MGNISEREEPTSAKRVAVVGAGVSGLAAAYKLKSHGLSVTLFEADSRAGGKLKTVKKDGFIWDEGANTMTESEAEVSSLIDDLGLREKQQLPISQNKRYIARDGLPVLLPSNPAALLTSNILSAKSKLQIMLEPFLWRKHNATELSDEHVQESVGEFFERHFGKEFVDYVIDPFVAGTCGGDPQSLSMHHTFPEVWNIEKRFGSVFAGLIQSTLLSKKEKGGENASIKKPRVRGSFSFQGGMQTLVDTMCKQLGEDELKLQCEVLSLSYNQKGIPSLGNWSVSSMSNNTSEDQSYDAVVVTAPIRNVKEMKIMKFGNPFSLDFIPEVTYVPLSVMITAFKKDKVKRPLEGFGVLIPSKEQHNGLKTLGTLFSSMMFPDRAPSDMCLFTTFVGGSRNRKLANASTDELKQIVSSDLQQLLGTEDEPSFVNHLFWSNAFPLYGHNYDSVLRAIDKMEKDLPGFFYAGNHKGGLSVGKAMASGCKAAELVISYLDSHIYVKMDEKTA
growth of knockout E. coli strain expressing the PPO in the presence of a PPO herbicide [1]: sensitive

B2: APG6: Arabidopsis thaliana albino and pale green (APG6) chloroplast transit peptide, SEQ ID NO:1, tested linked to DMO or PPO (protein, listed as Arabidopsis thalinana)
chain: MATATTTATAAFSGVVSVGTETRRIYSFSHLQPSAAFPAKPSSFKSLKLKQSARLTRRLDHRPFVVRC
≤10% injury (percent of plants) [2, 7]: (37.5%)
≤10% injury (plants of total sprayed) [2, 7]: 42/112
≤20% injury (percent of plants) [2, 7]: (58%)
≤20% injury (plants of total sprayed) [2, 7]: 65/112
≤10% injury (percent of plants) [2, 8]: (49.1%)
≤10% injury (plants of total sprayed) [2, 8]: 55/112
≤20% injury (percent of plants) [2, 8]: 56.3%)
≤20% injury (plants of total sprayed) [2, 8]: 63/112
≤10% injury (percent of plants) [2, 9]: (40.2%)
≤10% injury (plants of total sprayed) [2, 9]: 45/112
≤20% injury (percent of plants) [2, 9]: (58.9%)
≤20% injury (plants of total sprayed) [2, 9]: 66/112
≤10% injury (percent of plants) [2, 10]: (21.4%)
≤10% injury (plants of total sprayed) [2, 10]: 12/56
≤20% injury (percent of plants) [2, 10]: (41.1%)
≤20% injury (plants of total sprayed) [2, 10]: 23/56
2X Tolerant events ([3]; dicamba 1 lb ae/acre): 7/14
4X Tolerant events ([3]; dicamba 2 lb ae/acre): 6/18
dicamba % Injury, V4 stage [4]: 2.6%
Dicamba Injury, V4 stage [5]: 3.6%
≤10% injury (events of total, highly tolerant) [6]: 3/14
≤10% injury (percent of unique events) [6]: 21.4%
≤20% injury (events of total, tolerant) [6]: 8/14
≤20% injury (percent of unique events) [6]: 57.1%
